± gives the uncertainty stated by the source.
Test: self-splicing fitness, log relative to wild type (ln ratio); higher = more splicing; Tetrahymena group I intron in knt gene, E. coli kanamycin selection, DiMSum; sequences stand for … in CUCUCU…GGAGGGAAAAGUUAUCAGGCAUGCACCUGGUAGCUAGUCUUUAAACCAAUAGAUUGCAUCGGUUUAAAAGGCAAGACCGUCAAAUUGCGGGAAAGGGGUCAACAGCCGUUCAGUACCAAGUCUCAGGGGAAACUUUGAGAUGGCCUUGCAAAGGGUAUGGUAAUAAGCUGACGGACAUGGUCCUAACCACGCAGCCAAGUCCUAAGUCAACAGAUCUUCUGUUGAUAUGGAUGCAGUUCACAGACUAAAUGUCGGUCGGGGAAGAUGUAUUCUUCUCAUAAGAUAUAGUCGGACCUCUCCUUAAUGGGAGCUAGCGGAUGAAGUGAUGCAACACUGGAGCCGCUGGGAACUAAUUUGUAUGCGAAAGUAUAUUGAUUAGUUUUGGAGUACUCGUGGUCG
Method in brief: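 DiMSum derived fitness as the error-weighted combination of fold changes across replicates, kanamycin versus no kanamycin, normalised to wild type. E. coli BL21(DE3) held the library, which randomised all eight P1ex-region intron nucleotides within the knt kanamycin-resistance gene on pET-22b(+). Six replicate transformations grew overnight at 37°C or 30°C on LB agar with or without 25 μg/mL kanamycin, also containing 100 μg/mL carbenicillin, 50 μM IPTG and 0.2% rhamnose, and pooled colonies were amplicon-sequenced on an Illumina HiSeq 2500.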

Row | Sequence | self-splicing fitness (ln) (30 °C) | self-splicing fitness (ln) (37 °C)
1 | UGGAAGCAAUAUUACGAUUG | -1.76 ± 0.12 | -0.362 ± 0.12
2 | AUGAAGCAAUAUUACGAGCG | 0.0672 ± 0.066 | 0.405 ± 0.085
3 | CCUGAGCAAUAUUACGAAGU | – | -0.825 ± 0.19
4 | UCACAGCAAUAUUACGCUGA | -2.76 ± 0.18 | -1.54 ± 0.14
5 | ACGUAGCAAUAUUACGAAUG | -2.89 ± 0.13 | -1.53 ± 0.12
6 | UGGCAGCAAUAUUACGACUU | 0.0485 ± 0.093 | 0.468 ± 0.1
7 | UCCCAGCAAUAUUACGAUAG | -3.91 ± 0.26 | -1.97 ± 0.23
8 | CAGUAGCAAUAUUACGUGUA | -4.62 ± 0.34 | -2.55 ± 0.19
9 | CACAAGCAAUAUUACGUGGG | -3.94 ± 0.16 | -2.42 ± 0.12
10 | AGGAAGCAAUAUUACGUUAA | -3.22 ± 0.18 | -1.72 ± 0.12
11 | CUACAGCAAUAUUACGUGUG | -1.63 ± 0.055 | -0.0421 ± 0.061
12 | AUGGAGCAAUAUUACGGGAU | -3.03 ± 0.22 | -0.546 ± 0.19
13 | CACAAGCAAUAUUACGAUUU | -4.17 ± 0.18 | -2.56 ± 0.15
14 | UAACAGCAAUAUUACGUCUG | -0.467 ± 0.059 | 0.248 ± 0.077
15 | CAGAAGCAAUAUUACGUACC | -2.33 ± 0.24 | -1.55 ± 0.27
16 | GAUGAGCAAUAUUACGCGCC | -3.17 ± 0.3 | -2.26 ± 0.2
17 | GCGAAGCAAUAUUACGCGUG | -1.54 ± 0.12 | -1.7 ± 0.13
18 | GGUGAGCAAUAUUACGUGGG | -3.2 ± 0.23 | -2.09 ± 0.23
19 | ACCCAGCAAUAUUACGUCCC | -1.18 ± 0.16 | -0.981 ± 0.17
20 | CGAUAGCAAUAUUACGGACC | -1.78 ± 0.36 | -1.7 ± 0.29
21 | UGCAAGCAAUAUUACGCCUG | -2.3 ± 0.13 | -2.5 ± 0.25
22 | UGACAGCAAUAUUACGACCC | -1.52 ± 0.2 | -1.01 ± 0.25
23 | ACGCAGCAAUAUUACGAUCC | -2.24 ± 0.15 | -1.09 ± 0.17
24 | GCGUAGCAAUAUUACGGUUC | -2.26 ± 0.14 | -0.643 ± 0.18
25 | AGCGAGCAAUAUUACGGUCU | -1.42 ± 0.1 | -0.715 ± 0.15
26 | CCGGAGCAAUAUUACGUUGA | – | -2.61 ± 0.36

Row | Sequence | self-splicing fitness (ln) (30 °C) | self-splicing fitness (ln) (37 °C)
27 | UCCUAGCAAUAUUACGGACG | -3.92 ± 0.4 | -2.47 ± 0.39
28 | ACCCAGCAAUAUUACGCUGG | -2.83 ± 0.14 | -2.4 ± 0.18
29 | CGAAAGCAAUAUUACGGUAG | -0.561 ± 0.065 | -0.437 ± 0.085
30 | AACCAGCAAUAUUACGAGCA | -1.02 ± 0.092 | -0.505 ± 0.1
31 | UUGAAGCAAUAUUACGGGAC | -2.18 ± 0.3 | -2.34 ± 0.28
32 | GGGAAGCAAUAUUACGUGUU | -3.17 ± 0.21 | -1.9 ± 0.16
33 | UGCGAGCAAUAUUACGGUCG | -2.27 ± 0.25 | -2.39 ± 0.27
34 | GCACAGCAAUAUUACGCCCU | -0.527 ± 0.094 | 0.00502 ± 0.11
35 | GGCGAGCAAUAUUACGCUUU | -2.76 ± 0.23 | -1.22 ± 0.19
36 | CUGUAGCAAUAUUACGCUCU | -3.47 ± 0.39 | –
37 | AUCAAGCAAUAUUACGGGAC | -2.23 ± 0.081 | -1.11 ± 0.1
38 | GUCCAGCAAUAUUACGUGUG | -1.14 ± 0.064 | -0.529 ± 0.068
39 | GUGAAGCAAUAUUACGAAUC | -0.696 ± 0.14 | -0.964 ± 0.22
40 | GUAAAGCAAUAUUACGUCGC | -1.35 ± 0.11 | -0.63 ± 0.13
41 | ACAAAGCAAUAUUACGCUGC | -3.63 ± 0.25 | -1.26 ± 0.21
42 | ACGUAGCAAUAUUACGUAGA | -3.58 ± 0.42 | -2.86 ± 0.41
43 | UAUUAGCAAUAUUACGUGCG | -0.929 ± 0.079 | -0.636 ± 0.12
44 | GGGUAGCAAUAUUACGCAGC | -2.55 ± 0.13 | -0.837 ± 0.12
45 | UUAAAGCAAUAUUACGUGAA | -1.8 ± 0.13 | -0.0245 ± 0.13
46 | UCCUAGCAAUAUUACGGCAG | -3.38 ± 0.24 | -2.81 ± 0.22
47 | ACUCAGCAAUAUUACGGAUA | -0.808 ± 0.15 | -0.834 ± 0.16
48 | UUCGAGCAAUAUUACGCGCA | -0.15 ± 0.13 | -0.296 ± 0.17
49 | UGAAAGCAAUAUUACGAGUG | -0.522 ± 0.069 | 0.0623 ± 0.11
50 | GUAUAGCAAUAUUACGAGGA | -2.45 ± 0.26 | -2.66 ± 0.38
51 | GGGUAGCAAUAUUACGGCUG | -0.592 ± 0.11 | -1.05 ± 0.14
52 | AGCUAGCAAUAUUACGAACC | -0.602 ± 0.14 | -0.082 ± 0.14

Row | Sequence | self-splicing fitness (ln) (30 °C) | self-splicing fitness (ln) (37 °C)
53 | CGAAAGCAAUAUUACGUACC | -1.18 ± 0.13 | -0.845 ± 0.2
54 | GAGUAGCAAUAUUACGUUCU | -2.18 ± 0.18 | -2.56 ± 0.21
55 | UCACAGCAAUAUUACGAUAC | -3.87 ± 0.26 | -2.75 ± 0.35
56 | UAGAAGCAAUAUUACGGCUU | -3.59 ± 0.48 | -1.67 ± 0.23
57 | GAACAGCAAUAUUACGGCCG | -2.39 ± 0.11 | -0.46 ± 0.14
58 | CGCUAGCAAUAUUACGGAUU | -3 ± 0.23 | -1.52 ± 0.2
59 | UGGAAGCAAUAUUACGGUUA | -1.04 ± 0.11 | -0.0733 ± 0.099
60 | UAUGAGCAAUAUUACGAGAG | -2.42 ± 0.43 | -2.72 ± 0.38
61 | GGCCAGCAAUAUUACGCGUA | -1.07 ± 0.11 | -0.484 ± 0.1
62 | AGGAAGCAAUAUUACGGCUG | -0.459 ± 0.13 | -0.0568 ± 0.15
63 | AAAAAGCAAUAUUACGGCUA | -0.166 ± 0.089 | 0.116 ± 0.11
64 | UUGCAGCAAUAUUACGUUGG | -2.68 ± 0.15 | -2.42 ± 0.18
65 | UAGCAGCAAUAUUACGCUUU | -1.18 ± 0.12 | -0.753 ± 0.16
66 | UGCGAGCAAUAUUACGGUGC | – | -0.943 ± 0.2
67 | GUCUAGCAAUAUUACGUACG | -1.29 ± 0.12 | -0.709 ± 0.12
68 | GCCGAGCAAUAUUACGCCAU | -2.88 ± 0.23 | -2.5 ± 0.38
69 | AUGCAGCAAUAUUACGCCGC | -0.963 ± 0.28 | –
70 | CAACAGCAAUAUUACGGUUU | -0.644 ± 0.045 | 0.183 ± 0.056
71 | GAAUAGCAAUAUUACGGGUC | -1.89 ± 0.21 | -2.68 ± 0.33
72 | AUCAAGCAAUAUUACGUAGC | -4.82 ± 0.45 | -2.1 ± 0.31
73 | CCAUAGCAAUAUUACGGGUG | -1 ± 0.06 | -1.48 ± 0.078
74 | CGUGAGCAAUAUUACGCCGU | – | -1.1 ± 0.25
75 | UGUUAGCAAUAUUACGUCGG | -0.97 ± 0.1 | -0.8 ± 0.17
76 | GUAAAGCAAUAUUACGUCUC | 0.704 ± 0.098 | 0.129 ± 0.11
77 | AUUCAGCAAUAUUACGUUUC | -3.75 ± 0.16 | -2.13 ± 0.24
78 | CUAUAGCAAUAUUACGGUGG | -3.27 ± 0.24 | -2.22 ± 0.25
